This is an account of results in paper PMC3614804.

For experiment [1], the target named is FcεRIα (Homo sapiens) (UniProt P12319). Briefly: given as Ka. Conditions: cited from earlier work.
The target of experiment [2] is extracellular part of FcɛRIα with the transmembrane domain of Her2 at its C-terminus, displayed on the stable CHO cell line FI5F10 (UniProt P12319). Briefly: flow cytometry on cells; 7.5 nM IgE alone (positive control), or preincubated with 750 nM QME5 or with equimolar Omalizumab, added to FI5F10 cells; after washing 5 μg/mL FITC_GAH IgE detects membrane-binding IgE. On the technique in general: A flow cytometer gives signals particle by particle.

With IgE Cε3 Cε3 (from UniProt P01854), the Kd (usually the constant that tells how readily two partners part at equilibrium) in experiment [1] is 200 nM.
In turn, human IgE (ligand) gave a percentage of positive cells (7.5 nM IgE, positive control) in experiment [2] of 69.1%.
